Assay results reported in paper PMC9017650.

Tests used:
[1] = target: human FcγRIIIa receptor, V158 variants (human)
[2] = target: recombinant human TNFα (human) (UniProt P01375); assay: SPR
Golimumab A (human) = assay: SPR; Biacore T200; anti-human Fc antibody immobilised on a CM5 chip, golimumab captured, TNFα as analyte at five concentrations (7.81–125 nM), 30 μL/min, 25°C, 1:1 Langmuir model, KD = Kd/Ka
Golimumab B (human) = assay: as above

| ADCC reporter gene assay, EC50 (Jurkat NFAT-luciferase cells with FcγRIIIa V158 as effector cells, CHO-K1/hmTNFα as target cells) [1] [µg/mL] | koff [2] [s⁻¹] | Substance | also measured |
| --- | --- | --- | --- |
| 0.15 |  | Golimumab A (antibody) |  |
|  | 0.000164 | Golimumab A (from UniProt P01857) |  |
| 0.152 |  | Golimumab B (antibody) |  |
|  | 0.000149 | Golimumab B (from UniProt P01857) |  |
|  |  | recombinant human TNFα (from UniProt P01375 77-233) (ligand) | Kd (Golimumab A (human)): 0.0124 nM; Kd (Golimumab B (human)): 0.0106 nM |
